What all share (format): biochemical
Data set [1] relates to galactosylhydroxylysyl residues in calf skin gelatin substrate. Put plainly: GGT (glucosyltransferase) activity of recombinant proteins expressed in Sf9 insect cells. The settings on record: Sf9 cells, 72 hours after infection. From the text: The glucosyltransferase activity can be assayed as described in Myllylä et al. (1975). The method is based on the transfer of radioactively (tritium) labelled glucose from UDP-glucose to galactosylhydroxylysyl residues in calf skin gelatin substrate and on the specific assay of the product of the enzyme reaction after alkaline hydrolysis.
Commercially available baculovirus transfer vector pFastBacI in the BAC-TO-BAC™ expression system (Life technologies, Inc.) was modified to contain human LH1 signal peptide (Hautala et al., 1992) and His6 tag, and BamHI restriction site for insertion of the desired cDNA, nucleotides 289-2455 of LH3 cDNA (SEQ ID NO 6) (Valtavaara et al., 1998). The construct was confirmed by sequencing. The recombinant protein contains His tag at the amino-terminus after signal peptide cleavage. Insect cells were harvested 0-72 hours after infection and homogenized according to the protocol described earlier (Valtavaara et al., 1997).
Human LH1 signal peptide and His6 tag was inserted to the cDNA constructs of LH1 and LH2. The baculovirus transfer vector pFastBacI was modified so that human LH1 signal sequence followed by nine nucleotides of the amino-terminal end was ligated to the His6 tag followed by nucleotides for BamHI restriction site. The human cDNA sequence (LH1 or LH2) (SEQ ID NO 21, 23 and 25) starting from the likely amino-terminal end of the molecule was ligated to the BamHI site of the construct. Two expression constructs were generated for LH2, LH2a and LH2b (SEQ ID NO 23 and 25), both of them covered the nucleotides from 76 to 2267 (Valtavaara et al., 1997). The LH2b construct contained also the alternatively spliced exon sequence (Valtavaara 1999; Yeowell and Walker, 1999) between nucleotides 1500 and 1501 (SEQ ID NO 25). The constructs were confirmed by sequencing. Insect cells were grown and homogenized as described above.
LH activity was assayed by a method based on the hydroxylation-coupled decarboxylation of 2-oxo(1-^14C)glutarate (Kivirikko and Myllylä 1982), synthetic peptide […] was used as a substrate. GGT activity was assayed as described elsewhere (Myllylä et al. 1975). The method is based on the transfer of radioactively (tritium) labelled glucose from UDP-glucose to galactosylhydroxylysyl residues in calf skin gelatin substrate and on the specific assay of the product of the enzyme reaction after alkaline hydrolysis.

Data set [2] deals with hydroxylysyl residues in a calf skin gelatin substrate. Put plainly: GT (galactosyltransferase) activity of recombinant proteins expressed in E. coli. To be noted: E. coli cell supernatant, FIG. 12.
Excerpt: The galactosyltransferase activity can be assayed as described in Myllylä et al. (1975). The method is based on the transfer of radioactively (tritium) labelled galactose from UDP-galactose to hydroxylysyl residues in calf skin gelatin substrate and on the specific assay of the product of the enzyme reaction after alkaline hydrolysis.
The subject of data set [3] is synthetic peptide IKGIKGIKG
Put plainly: LH activity of human LH isoforms expressed in E. coli. To be noted: E. coli expression system, data not shown. From the text: The lysyl hydroxylase activity can be assayed by a method based on the hydroxylation-coupled decarboxylation of 2-oxo(1-^14C)glutarate (Kivirikko and Myllylä 1982), synthetic peptide […] was used as a substrate.
PFastBacI constructs for human LH1, LH2a, LH2b and LH3 were cleaved with BamHI and Hind III restriction enzymes and coding regions were subcloned into same site in E. coli expression vector pQE30 containing (His)6 tag at the amino terminus. Insert for C. elegans LH (corresponding to amino acids 14-730 in cDNA) was generated by PCR and ligated into SacI-PstI site of pOE30 vector. Constructs were transformed into E. coli XL1-Blue strain. Cultures were grown to OD600 of 0.6 at 37° C. Protein expression was induced by adding 1 mM IPTG and incubation was proceed at 30° C. for 5 hours. Cells were harvested and stored at −20° C. For activity measurements cell pellet was suspended to lysis buffer (0.4 M NaCl, 0.5% Nonident and 20 mM Tris-HCl pH 7.8, at 20° C.) and incubated in the presence of lysozyme (50 μg/ml), DNAase (10 μg/ml) and RNAase (10 μg g/ml) at room temperature for 30 minutes. Lysis was completed by sonication. Cell debris was pelleted and supernatant was used in the measurements.

Data set [4] concerns hydroxylysyl residues in a calf skin gelatin substrate. Put plainly: GT activity of recombinant proteins expressed with baculovirus vector in Sf9 cells. The settings on record: baculovirus vector in insect cells, not shown. The procedure:
Baculovirus transfer vector pFastBacI in the BAC-TO-BAC™ expression system was used to produce LH3 protein in Sf9 cells. The cDNA construct is in Example 1. The recombinant protein contains the His tag at the amino terminus after signal peptide cleavage. The cells were homogenized as described elsewhere (Valtavaara et al. 1997).
GT and GGT activities were measured by a method based on the transfer of radioactively (tritium)-labeled sugar from UDP-sugar to hydroxylysyl or galactosylhydroxylysyl residues in a calf skin gelatin substrate, respectively (Myllylä et al. 1975). The specific detection of the reaction products was performed after alkaline hydrolysis.

Data set [5] concerns galactosylhydroxylysyl residues in a calf skin gelatin substrate. Put plainly: GGT activity of recombinant proteins expressed in E. coli. The settings on record: E. coli supernatant, 5 h IPTG induction, stored at −70° C. overnight; listed as LH cDNA.

Results on two molecules are retold here after patent publication US7951562B2, “Method for glycosylating hydroxylysine residues in polypeptides or peptides” (Oulun Yliopisto, priority 2000, dated 2011).

Where “and” joins values, the source holds several entries; their conditions need not be identical. Equal values may be shown once.

B1: LH2b: recombinant human lysyl hydroxylase isoform 2, alternatively spliced form b (protein, listed as Homo sapiens)
chain: MGGCTVKPQLLLLALVLHPWNPCLGADSEKPSSIPTDKLLVITVATKESDGFHRFMQSAKYFNYTVKVLGQGEEWRGGDGINSIGGGQKVRLMKEVMEHYADQDDLVVMFTECFDVIFAGGPEEVLKKFQKANHKVVFAADGILWPDKRLADKYPVVHIGKRYLNSGGFIGYAPYVNRIVQQWNLQDNDDDQLFYTKVYIDPLKREAINITLDHKCKIFQTLNGAVDEVVLKFENGKARAKNTFYETLPVAINGNGPTKILLNYFGNYVPNSWTQDNGCTLCEFDTVDLSAVDVHPNVSIGVFIEQPTPFLPRFLDILLTLDYPKEALKLFIHNKEVYHEKDIKVFFDKAKHEIKTIKIVGPEENLSQAEARNMGMDFCRQDEKCDYYFSVDADVVLTNPRTLKILIEQNRKIIAPLVTRHGKLWSNFWGALSPDGYYARSEDYVDIVQGNRVGVWNVPYMANVYLIKGKTLRSEMNERNYFVRDKLDPDMALCRNAREMTLQREKDSPTPETFQMLSPPKGVFMYISNRHEFGRLLSTANYNTSHYNNDLWQIFENPVDWKEKYINRDYSKIFTENIVEQPCPDVFWFPIFSEKACDELVEEMEHYGKWSGGKHHDSRISGGYENVPTDDIHMKQVDLENVWLDFIREFIAPVTLKVFAGYYTKGFALLNFVVKYSPERQRSLRPHHDASTFTINIALNNVGEDFQGGGCKFLRYNCSIESPRKGWSFMHPGRLTHLHEGLPVKNGTRYIAVSFIDP
modifications: His6 tag; CDS (1)..(2277)
notes: recombinant human lysyl hydroxylase isoform 2, alternatively spliced form b
On to B1, for which the “GGT activity in cell lysates” value in data set [1] was “none of these recombinant proteins had detectable GGT activity”. For the same molecule, the “generation of GT activity” value in data set [2] was “LH3 was the only one being able to generate GT activity”; in data set [4] it was “did not generated GT activity”. In data set [3], the “LH activity” value is “no LH activity can be found”.

B2: C. elegans LH: protein produced from Caenorhabditis elegans lysyl hydroxylase cDNA (amino acids 14-730) (protein)
chain: LLATTITDLPELVVVTVATENTDGLKRLLESAKAFDINIEVLGLGEKWNGGDTRIEQGGGQKIRILSDWIEKYKDASDTMIMFVDAYDVVFNADSTTILRKFFEHYSEKRLLFGAEPFCWPDQSLAPEYPIVEFGKRFLNSGLFMGYGPEMHKILKLKSVEDKDDDQLYYTMIYLDEKLRKELNMDLDSMSKIFQNLNGVIEDVELQFKEDGTPEAYNAAYNTKPLIVHGNGPSKSHLNYLGNYLGNRWNSQLGCRTCGLEVKESEEVPLIALNLFISKPIPFIEEVLQKIAEFDYPKEKIALYIYNNQPFSIKNIQDFLQKHGKSYYTKRVINGVTEIGDREARNEAIEWNKARNVEFAFLMDGDAYFSEPKVIKDLIQYSKTYDVGIIAPMIGQPGKLFTNFWGAIAANGYYARSEDYMAIVKGNRVGYWNVPFITSAVLFNKEKLEAMKDAYSYNKNLDPDMSMCKFARDNGHFLYIDNEKYYGFLIVSDEYAETVTEGKWHPEMWQIFENRELWEARYIHPGYHKIMEPEHVVDQACPDVYDFPLMSERFCEELIEEMEGFGRWSDGSNNDKRLAGGYENVPTRDIHMNQVGFERQWLYFMDTYVRPVQEKTFIGYYHQPVESNMMFVVRYKPEEQPSLRPHHDASTFSIDIALNKKGRDYEGGGVRYIRYNCTVPADEVGYAMMFPGRLTHLHEGLATTKGTRYIMVSFINP
modifications: Caenorhabditis elegans
Take B2: the GGT enzyme activity in data set [5] was 30.700 dpm/mg soluble protein and 21.000 dpm/mg soluble protein.
